Assay results reported in patent US20090017041A1.

Tests used:
[1] = biological target: low molecular weight (LMW) monomeric preparation of the Aβ1-42 peptide (Example 15) (human); experiment: ELISA, fraction coated at 2 µM; antibody 0.5 µg/ml
[2] = biological target: high molecular weight (HMW) proto-fibrillar (PF) oligomer enriched preparation of the Aβ1-42 peptide (Example 15) (human); experiment: ELISA, fraction coated at 2 µM; antibody 0.5 µg/ml
[3] = biological target: monomer-enriched preparation of the Aβ1-42 peptide (Example 16); experiment: ELISA, fraction coated at 2.2 µM; antibody dilution 1:4 (start 0.5 µg/ml)
[4] = biological target: oligomer-enriched preparation of the Aβ1-42 peptide (Example 16); experiment: as above
[5] = biological target: low molecular weight (LMW) monomeric preparation of the Aβ1-42 peptide (Example 15) (human); experiment: ELISA, fraction coated at 2 µM; antibody 0.0156 µg/ml
[6] = biological target: high molecular weight (HMW) proto-fibrillar (PF) oligomer enriched preparation of the Aβ1-42 peptide (Example 15) (human); experiment: as above
[7] = biological target: monomer-enriched preparation of the Aβ1-42 peptide (Example 16); experiment: ELISA, fraction coated at 2.2 µM; assay 3; antibody dilution 1:128 (start 0.5 µg/ml)
[8] = biological target: oligomer-enriched preparation of the Aβ1-42 peptide (Example 16); experiment: as above
[9] = biological target: monomer-enriched preparation of the Aβ1-42 peptide (Example 16); experiment: ELISA, fraction coated at 2.2 µM; assay 3; antibody dilution 1:1 (start 0.5 µg/ml)
[10] = biological target: oligomer-enriched preparation of the Aβ1-42 peptide (Example 16); experiment: as above

monomer-enriched preparation of the Aβ1-42 peptide (Example 16), sequence (peptide, as listed by the source): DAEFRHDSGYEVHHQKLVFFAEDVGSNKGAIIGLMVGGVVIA
oligomer-enriched preparation of the Aβ1-42 peptide (Example 16), sequence (peptide, as listed by the source): as above
high molecular weight (HMW) proto-fibrillar (PF) oligomer enriched preparation of the Aβ1-42 peptide (Example 15) (human), sequence (peptide, as listed by the source): as above
low molecular weight (LMW) monomeric preparation of the Aβ1-42 peptide (Example 15) (human), sequence (peptide, as listed by the source): as above

O.D. (405 nm) [1]: 2.13 O.D.
O.D. (405 nm) [2]: 2 O.D.
O.D. (405 nm), mean of 3 assays [3]: 3.27 O.D.
O.D. (405 nm), mean of 3 assays [4]: 3.37 O.D.
O.D. (405 nm) [5]: 0.207 O.D.
O.D. (405 nm) [6]: 0.201 O.D.
O.D. (405 nm) [7]: 0.86 O.D.
O.D. (405 nm) [8]: 0.66 O.D.
O.D. (405 nm) [9]: 4.04 O.D.
O.D. (405 nm) [10]: 3.89 O.D.
Substance: 6E10 control antibody
